Measured values from US20240101640A1 (CSL BEHRING, published 2024).

B2: heme-hemopexin complex (human plasma derived hemopexin saturated with hemin) (ligand)
chain: TPLPPTSAHGNVAEGETKPDPDVTERCSDGWSFDATTLDDNGTMLFFKGEFVWKSHKWDRELISERWKNFPSPVDAAFRQGHNSVFLIKGDKVWVYPPEKKEKGYPKLLQDEFPGIPSPLDAAVECHRGECQAEGVLFFQGDREWFWDLATGTMKERSWPAVGNCSSALRWLGRYYCFQGNQFLRFDPVRGEVPPRYPRDVRDYFMPCPGRGHGHRNGTGHGNSTHHGPEYMRCSPHLVLSALTSDNHGATYAFSGTHYWRLDTSRDGWHSWPIAHQWPQGPSAVDAAFSWEEKLYLVQGTQVYVFLTKGGYTLVSGYPKRLEKEVGTPHGIILDSVDAAFICPGSSRLHIMAGRRLWWLDLKSGAQATWTELPWPHEKVDGALCMEKSLGPNSCSANGPGLYLIHGPNLYCYSDVEKLNAAKALPQPQNVTSLLGCTH
modifications: heme (hemin) bound non-covalently in a 1:1 ratio
notes: also called heme-hpx complex; heme-hx complex

Columns and labels:
[1] = target: B2; experiment: BLI (Octet), LRP1.2 captured on anti-Penta-His biosensor, heme-hpx complex as analyte at 0.312-2.5 µM [LRP1.2]
Experimental: (§1) Individual LRP1 domains were immobilized on the biosensor surface. After baseline recording four concentration of heme-hpx complexes were tested (2.5, 1.25, 0.625 and 0.312 μM). For LRP1.3 the reference subtracted and processed kinetic dataset was globally fitted using a 1:1 binding model. Heme-hpx is shown in red curves, fitted curve as solid black line. LRP1.1, LRP1.2, LRP1.4 and LRP1.5 were not fitted.
(§2) As described above, anti-penta His antibody pre-coated biosensors (Cat N°: 18-5120, ForteBio, TechNote 43: Anti-Penta-HIS (HIS1K) biosensors for label-free analysis of HIS-tagged proteins, 2019) were used. The different LRP1 domains were immobilized at a concentration of 15 μg/mL in 10× kinetic buffer (PBS, 0.1% BSA, 0.02% Tween20). Heme-Hpx complex was diluted in 10× kinetic buffer (PBS, 0.1% BSA, 0.02% Tween20). The association and dissociation kinetics of heme-hemopexin complex, were performed at concentrations of 2.5, 1.25, 0.625 and 0.3125 μM. A reference control was included in every experiment (sensor loaded with ligand without analyte). Data was acquired on an OctetRED96 (FortéBio) at 30° C. with the following settings:
(§3) To investigate and determine, which of the LRP1 domains bind the heme-hpx complex, each of the domains were tethered on biosensors (HIS1K; anti-penta-His) via the expressed His-tag.

[2] = target: T1, HuLRP1(1-24)-FLAG-HuLRP1(2481-2942)-8His (huLRP1 soluble minireceptor, ligand binding domain III) (human, UniProt Q07954 2481-2942); experiment: SPR, LRP1.3 tethered on NTA chip, heme-hpx complex batch TO341022BM (“New”), 1:1 steady state fit, N = 1
T1 construct: Made in ExpiCHO-S cells; also called LRP1.3; LRP1 domain III

[3] = target: T1, HuLRP1(1-24)-FLAG-HuLRP1(2481-2942)-8His …; experiment: SPR, LRP1.3 tethered on NTA chip, heme-hpx complex batch TO342022B (“Aged”), 1:1 steady state fit, N = 1
Experimental: (§4) Heme-hpx complex was injected in duplicate at concentrations ranging from 0.62 to 20 μM in 2-fold dilution series over 30 seconds. The dissociation was monitored for 60 seconds. No regeneration step was required between cycles since the complex dissociated fully. Sensogram data from active surface (flow cell 4) were double referenced by subtraction of data from reference surface (flow cells 3) and blank injections. Sensogram data were fit to a 1:1 steady state model.

[4] = target: T1, HuLRP1(1-24)-FLAG-HuLRP1(2481-2942)-8His …; experiment: SPR, LRP1.3 tethered on NTA chip, heme-hpx complex batch T0342022C as printed, 1:1 steady state fit, N = 1
[5] = target: T1, HuLRP1(1-24)-FLAG-HuLRP1(2481-2942)-8His …; experiment: SPR, LRP1.3 tethered on NTA chip (capture cross link), heme-hpx (batch TO411122), 1:1 steady state fit, mean of N = 3
[6] = target: T1, HuLRP1(1-24)-FLAG-HuLRP1(2481-2942)-8His …; experiment: SPR, LRP1.3 tethered on NTA chip (capture cross link), heme-hpx (batch TO411122) 0.62-20 µM, 1:1 steady state fit, run 1
Experimental: as §4

[7] = target: T1, HuLRP1(1-24)-FLAG-HuLRP1(2481-2942)-8His …; experiment: SPR, LRP1.3 tethered on NTA chip (capture cross link), heme-hpx (batch TO411122) 0.62-20 µM, 1:1 steady state fit, run 2
Experimental: as §4
(§5) In a next step and as mentioned above an alternative assay setup was developed as illustrated in FIG. 7A.

[8] = target: T1, HuLRP1(1-24)-FLAG-HuLRP1(2481-2942)-8His …; experiment: SPR, LRP1.3 tethered on NTA chip (capture cross link), heme-hpx (batch TO411122) 0.62-20 µM, 1:1 steady state fit, run 3
Experimental: as §4, §5

[9] = target: T1, HuLRP1(1-24)-FLAG-HuLRP1(2481-2942)-8His …; experiment: BLI (OctetRED96, 30 °C), LRP1.3 captured on anti-penta-His biosensor, heme-hpx (batch TO294001) 2.5-0.312 µM, global 1:1 fit
Experimental: as §1
as §2, with “settings: […]” for “settings:”

[10] = target: T2, HuLRP1(1-24)-FLAG-HuLRP1(3293-3783)-8His (huLRP1 soluble minireceptor, ligand binding domain IV) (human, UniProt Q07954 3293-3783); experiment: BLI (Octet), LRP1.4 captured on anti-Penta-His biosensor, heme-hpx complex as analyte at 0.312-2.5 µM [LRP1.4]
T2 construct: also called LRP1.4; LPR1 domain IV
Experimental: as §1, §2, §3

[11] = target: T3, HuLRP1 (3332-3779)-8His (second ligand binding domain IV construct) (human, UniProt Q07954 3332-3779); experiment: BLI (Octet), LRP1.5 captured on anti-Penta-His biosensor, heme-hpx complex as analyte at 0.312-2.5 µM [LRP1.5]
T3 construct: Any N-terminal residues left from a signal peptide or tag are not described; also called LRP1.5; LPR1 domain IV (LRP1.5)
Experimental: as §1, §2, §3

[12] = target: T1, HuLRP1(1-24)-FLAG-HuLRP1(2481-2942)-8His …; experiment: SPR (Biacore), LRP1.3 tethered on NTA chip, heme-hpx complex batch TO411122 (as titled on the sheet) as analyte at 0.62-20 µM, steady state 1:1 fit
Experimental: as §4

[13] = target: T1, HuLRP1(1-24)-FLAG-HuLRP1(2481-2942)-8His …; experiment: SPR (Biacore), LRP1.3 tethered on NTA chip, heme-hpx complex ("new", batch TO341022BM by the legend) as analyte at 0.62-20 µM, steady state 1:1 fit
Experimental: as §4

[14] = target: T1, HuLRP1(1-24)-FLAG-HuLRP1(2481-2942)-8His …; experiment: SPR (Biacore), LRP1.3 tethered on NTA chip, heme-hpx complex ("aged", batch TO342022B by the legend) as analyte at 0.62-20 µM, steady state 1:1 fit
Experimental: as §4

[15] = target: T1, HuLRP1(1-24)-FLAG-HuLRP1(2481-2942)-8His …; experiment: SPR (Biacore, 37 °C), heme-hpx (batch TO411122) captured by anti-hemopexin polyclonal antibody on CM5, LRP1.3 0.312-20 µM as analyte, kinetic fit (not optimal)
[16] = target: B2; experiment: BLI (Octet), LRP1.1 captured on anti-Penta-His biosensor, heme-hpx complex as analyte at 0.312-2.5 µM [LRP1.1]
Experimental: as §1, §2, §3

T1 sequence (Q07954 other isoform, or with tags, fused parts or gaps): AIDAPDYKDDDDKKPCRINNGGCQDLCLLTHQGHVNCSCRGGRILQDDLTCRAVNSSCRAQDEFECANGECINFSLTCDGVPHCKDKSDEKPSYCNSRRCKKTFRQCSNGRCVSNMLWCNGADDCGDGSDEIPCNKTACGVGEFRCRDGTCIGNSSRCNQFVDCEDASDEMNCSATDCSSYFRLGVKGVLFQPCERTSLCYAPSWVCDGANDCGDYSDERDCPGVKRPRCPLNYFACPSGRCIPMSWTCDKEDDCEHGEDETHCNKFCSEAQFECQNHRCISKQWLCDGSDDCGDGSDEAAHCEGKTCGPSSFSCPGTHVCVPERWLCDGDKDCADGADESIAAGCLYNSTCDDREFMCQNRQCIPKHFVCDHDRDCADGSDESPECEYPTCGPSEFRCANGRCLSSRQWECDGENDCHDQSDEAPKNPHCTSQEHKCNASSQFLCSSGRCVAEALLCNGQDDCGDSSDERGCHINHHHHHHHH
T3 sequence (Q07954 other isoform, or with tags, fused parts or gaps): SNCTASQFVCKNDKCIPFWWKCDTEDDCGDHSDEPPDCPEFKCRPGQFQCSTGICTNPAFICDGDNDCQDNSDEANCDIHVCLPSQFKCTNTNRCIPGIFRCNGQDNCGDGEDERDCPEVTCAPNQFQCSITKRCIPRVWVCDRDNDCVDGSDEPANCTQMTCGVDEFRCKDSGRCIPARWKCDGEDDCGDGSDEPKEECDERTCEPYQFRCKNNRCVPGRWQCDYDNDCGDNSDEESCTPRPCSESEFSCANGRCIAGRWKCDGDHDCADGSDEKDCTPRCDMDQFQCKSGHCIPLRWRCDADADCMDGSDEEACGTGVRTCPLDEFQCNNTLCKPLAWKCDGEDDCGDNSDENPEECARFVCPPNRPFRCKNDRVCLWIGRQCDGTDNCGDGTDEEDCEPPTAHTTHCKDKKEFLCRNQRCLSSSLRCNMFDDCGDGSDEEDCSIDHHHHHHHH
T2 sequence (Q07954 other isoform, or with tags, fused parts or gaps): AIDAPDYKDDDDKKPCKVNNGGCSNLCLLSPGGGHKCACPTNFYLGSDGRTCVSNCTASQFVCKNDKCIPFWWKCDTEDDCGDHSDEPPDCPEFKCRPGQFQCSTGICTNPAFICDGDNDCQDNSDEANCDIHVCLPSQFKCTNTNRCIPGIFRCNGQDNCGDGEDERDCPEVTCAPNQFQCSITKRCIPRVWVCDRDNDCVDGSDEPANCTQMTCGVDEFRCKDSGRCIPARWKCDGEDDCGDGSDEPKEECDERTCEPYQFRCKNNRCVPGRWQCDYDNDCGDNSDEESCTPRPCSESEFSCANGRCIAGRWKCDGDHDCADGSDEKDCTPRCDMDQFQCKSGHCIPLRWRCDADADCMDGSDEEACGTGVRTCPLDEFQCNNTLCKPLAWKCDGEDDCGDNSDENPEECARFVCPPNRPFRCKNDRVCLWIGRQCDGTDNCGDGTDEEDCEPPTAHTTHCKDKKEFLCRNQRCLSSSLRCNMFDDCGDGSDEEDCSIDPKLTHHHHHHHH

B1: HuLRP1(1-24)-FLAG-HuLRP1(806-1183)-8His (huLRP1 soluble minireceptor, ligand binding domain II) (receptor)
chain: AIDAPDYKDDDDKKKCRVNNGGCSSLCLATPGSRQCACAEDQVLDADGVTCLANPSYVPPPQCQPGEFACANSRCIQERWKCDGDNDCLDNSDEAPALCHQHTCPSDRFKCENNRCIPNRWLCDGDNDCGNSEDESNATCSARTCPPNQFSCASGRCIPISWTCDLDDDCGDRSDESASCAYPTCFPLTQFTCNNGRCININWRCDNDNDCGDNSDEAGCSHSCSSTQFKCNSGRCIPEHWTCDGDNDCGDYSDETHANCTNQATRPPGGCHTDEFQCRLDGLCIPLRWRCDGDTDCMDSSDEKSCEGVTHVCDPSVKFGCKDSARCISKAWVCDGDNDCEDNSDEENCESLACRPPSHPCANNTSVCLPPDKLCDGNDDCGDGSDEGELCDHHHHHHHH
notes: also called LRP1.2; LPR1 domain II
binding result [1]: no binding (tested: 2.5 µM heme-hpx complex)

Binder: B2
Kd [2]: 1410 nM | Kd [3]: 1350 nM | Kd [4]: 1340 nM | Kd [5]: 2620 nM | Kd [6]: 2620 nM | Kd [7]: 2610 nM | Kd [8]: 2630 nM | Kd [9]: 1460 nM | koff [9]: 0.0555 s⁻¹ | kon [9]: 37900 M⁻¹ s⁻¹ | binding result [10]: no binding (tested: 2.5 µM heme-hpx complex) | binding result [11]: no binding (tested: 2.5 µM heme-hpx complex) | Kd [12]: 1400 nM | Kd [13]: 1400 nM | Kd [14]: 1400 nM | Kd [15]: ~2000 nM

B3: HuLRP1(1-24)-FLAG-HuLRP1(25-113)-8His (huLRP1 soluble minireceptor, ligand binding domain I) (receptor)
chain: AIDAPDYKDDDDKKKTCSPKQFACRDQITCISKGWRCDGERDCPDGSDEAPEICPQSKAQRCQPNEHNCLGTELCVPMSRLCNGVQDCMDGSDEGPHCRELQGHHHHHHHH
notes: also called LPR1 domain I; LRP1 domain 1
binding result [16]: no binding (tested: 2.5 µM heme-hpx complex)
